Results on 2 molecules are retold here after patent US20210071139A1.

Test [1] addresses TOX (UniProt Q66JW3). The test can be described thus: TOX co-IP from EL4 nuclear extract, LC-MS/MS, MiST.
The target of test [2] is TOX (UniProt Q66JW3). The test can be described thus: anti-TOX IP from EL4 nuclear extract, LC-MS/MS, MiST vs IgG control.
TOX, sequence (Q66JW3 whole entry): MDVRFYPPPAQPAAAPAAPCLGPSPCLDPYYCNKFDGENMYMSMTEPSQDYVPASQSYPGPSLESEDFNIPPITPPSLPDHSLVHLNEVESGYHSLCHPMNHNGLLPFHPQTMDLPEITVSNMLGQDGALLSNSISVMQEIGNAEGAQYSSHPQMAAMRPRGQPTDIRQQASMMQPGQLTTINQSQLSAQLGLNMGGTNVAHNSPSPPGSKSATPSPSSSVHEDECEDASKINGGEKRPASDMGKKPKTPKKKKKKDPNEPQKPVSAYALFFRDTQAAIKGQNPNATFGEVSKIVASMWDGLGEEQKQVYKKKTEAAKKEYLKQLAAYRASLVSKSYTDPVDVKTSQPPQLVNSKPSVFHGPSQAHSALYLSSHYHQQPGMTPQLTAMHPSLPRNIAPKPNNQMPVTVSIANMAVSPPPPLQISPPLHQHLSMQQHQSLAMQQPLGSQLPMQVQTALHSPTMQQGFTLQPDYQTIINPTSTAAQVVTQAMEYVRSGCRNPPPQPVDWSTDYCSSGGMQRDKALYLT

B1: Spty2d1 (protein, UniProt Q68FG3 1-682, looked up)
Protein SPT2 homolog: MDFREILLIASKGQGVNHVPKRYSLAVGPPKKDPKVKGVQSAAVQAFLRRKEEELRQKALEEKKRKEELVKKRIELKHDKKARAMAKRTKDNFHGYDGIPVEEKTKKKQLVESHLNQGTDQEYDVEEEDFIDYNQAELDQDYEEEQEPPKAESKPKAPLKSAPSPMNFTDLLRLAEKKQFEPVEIKVVKKAEDRPLTAEELREREFLERKHRKKKPEPDAKLPPPVLKKAPSHKDIMGTKPSRGAGDRQLASKGLPFPQAEKKFRPSTASEKQAALSSPKSLPGERTKVGSGSSTQPSLREGHNRPVFNGAGKPRPSTCSPSVPKTPASGTQKSASEHKAKKPLPSHPSHSKPGPTVLSHNKSKSPGVRQPGSNSGSAPGQPNPGTARPTLSSGPVPRRQNGSSSSGPEQSAGGIRKLASNSHLSGRTLNGTNGPGRPASSSSGPGRPISGSAGSGRPVGSSGGPGQPVNNPHDLRRPMNSLSSPGRAVSGPGRSISGSIPAGRTVNSGPGRPVSSLGPGRAVSNPGLPTKPRCTVVSETISSKNIISRSSNGQINGMKPLLSGYRSAQGPQRLPFPTGYKRPREYEEDDDDEYDSEMDDFIEDEGEPQEEISKHIREIFGYDRKKYKDESDYALRYMESSWKEQQKEEAKSLRLGMQEDLEEMRREEEELKRRKAKKLKRH
As for B1, in test [1], the Abundance was 1.04e-05, the MiST Score stood at 0.846, the Reproducibility turned out to be 0.848 and the Specificity was 0.852.

B2: Cwc27 (protein, UniProt Q3TKY6 2-469, looked up)
Spliceosome-associated protein CWC27 homolog: SNIYIQEPPTNGKVLLKTTAGDIDIELWSKEAPKACRNFIQLCLEAYYDNTIFHRVVPGFIVQGGDPTGTGTGGESIYGAPFKDEFHSRLRFNRRGLVAMANAGPHDNGSQFFFTLGRADELNNKHTIFGKVTGDTVYNMLRLTEVDIDDEERPRNPHRIKSCEVLFNPFDDITPREIKKPKNEKPEEEVKKLKPKGTKNFSLLSFGEEAEEEEEEVNRVSQSMKGRSKSSHDLLKDDPHLSSVPAVESEKDDATGDLEDDGEDDSAERDEYMEDDEKNLMRERIAKRLKKDASASVKSAGDGEKKPASRSEELRKEARQLKRELLAAKQKKETAIKVEEGREEEEAAPDGAVAEYRREKQKYEALRKQQPKKGTSREDQTLALLSQFKSKLTQAITETPENSVPEAEVEDDEGWMSHVLQFEDKTRKVKDASMQDSDTFEIYDPRNPVNKRRREESKKLLREKKERR
In test [2], B2 returned an Abundance of 1.14e-05, a MiST Score of 0.758, a Reproducibility of 0.435 and a Specificity of 0.91.
